Laboratory results published in patent US20170321218A1, “FACTOR XIA-SPECIFIC APTAMERS” (CANADIAN BLOOD SERVICES, published 2017).
Each block holds one molecule with its values, some of them ahead of it.

Assays:
thrombin = thrombin (UniProt P00734); test: cell-based or functional assay
Factor XIa (FXIa) [1] = molecular target: T1, Factor XIa (FXIa) (UniProt P03951;P03951 P03951:19-387,P03951:388-625); test: SPR; ±0.1 nM; ka 5.2e4 M-1s-1, kd 9.5e-5 s-1; 100 mM HEPES pH 7.4, 150 mM NaCl, 0.01% Tween 20, 25 C; SCRAPT reference cell subtracted; conditions: chain copies: 2,2; label: 3'-biotin; predicted stem-loop hairpin with bulge and two small loops
Method: Kinetic measurements of aptamer binding were analyzed by SPR on a Biacore T200 (GE Healthcare). To immobilize the aptamer, a CM5 sensor chip (GE Healthcare) was activated with a 0.2 M N-ethyl-N′-(dimethylamino-propyl) carbodiimide (EDC) and 0.05 M N-hydroxysuccinimide (NHS) (Sigma) solution, followed by binding of streptavidin (0.2 mg/ml, pH 4.5). FELIAP and SCRAPT (3′ biotinylated) in 100 mM HEPES (pH 7.4), 150 mM NaCl, 0.01% Tween 20 were immobilized on the streptavidin-coated chips at a flow rate of 10 μL/min to 100 response units (RU). Flow cells were regenerated with 0.2% SDS (w/vol). FXIa at concentrations varying from 15.671 nM to 500 nM was injected at a flow rate of 50 μl/min for 180 s to monitor association, and HEPES buffer for 1800 s to monitor dissociation. The signal from the SCRAPT-immobilized flow cell was used as a reference and subtracted from the signal arising from FXIa binding to the FELIAP-immobilized cell. Binding of FXIa and aptamer was quantified by global analysis of on and off rates using the Langmuir 1:1 binding model, as determined with the instrument's software provided by the manufacturer (Biacore). All experiments were done in triplicate.

Factor XIa (FXIa) [2] = molecular target: T1, Factor XIa (FXIa); test: inhibition; competitive inhibition of S2366 amidolysis; PPNE pH 7.4, 37 C; conditions: chain copies: 2,2; predicted stem-loop hairpin with bulge and two small loops
Method: The mode of inhibition of FELIAP was investigated by fixing the concentrations of chromogenic substrate and FXIa and increasing the concentration of FELIAP and measuring the rate of substrate cleavage. A dose-dependent reduction in the reaction rate was observed as FELIAP was increased from 0 to 20 μM, while the same concentrations of SCRAPT had no inhibitory effect (FIG. 2A). Next, the concentration of chromogenic substrate S2366 was varied while keeping FXIa constant at different concentrations of FELIAP (FIG. 2B).

T1 sequence (P03951 19-387, chain 1 of 2): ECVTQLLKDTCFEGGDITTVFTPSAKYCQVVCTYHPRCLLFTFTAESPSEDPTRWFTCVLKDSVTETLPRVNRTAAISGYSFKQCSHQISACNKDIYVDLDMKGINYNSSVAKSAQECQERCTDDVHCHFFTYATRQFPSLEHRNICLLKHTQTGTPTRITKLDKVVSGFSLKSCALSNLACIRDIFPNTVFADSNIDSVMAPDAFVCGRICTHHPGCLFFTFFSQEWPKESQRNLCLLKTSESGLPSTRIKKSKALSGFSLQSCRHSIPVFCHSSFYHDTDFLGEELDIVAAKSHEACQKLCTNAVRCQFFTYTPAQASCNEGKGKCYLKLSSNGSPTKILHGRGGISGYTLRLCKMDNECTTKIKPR
T1 sequence (P03951 388-625, chain 2 of 2): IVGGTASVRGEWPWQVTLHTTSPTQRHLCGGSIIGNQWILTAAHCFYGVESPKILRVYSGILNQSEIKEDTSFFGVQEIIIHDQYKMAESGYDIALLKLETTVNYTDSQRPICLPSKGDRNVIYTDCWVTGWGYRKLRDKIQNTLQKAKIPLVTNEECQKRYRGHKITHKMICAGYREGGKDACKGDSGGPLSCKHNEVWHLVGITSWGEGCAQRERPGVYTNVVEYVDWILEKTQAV

thrombin generation assay, FXI-depleted plasma with tissue factor: time to peak thrombin (thrombin): 3.1 fold
Molecule: recombinant His-tagged hirudin variant 3

B1: FELIAP 3'-biotin (ssDNA)
DNA: GAATTCTAATACGACTCACTATAAACCTATCGGACTATTGTTAGTGATTTTTATAGTGTGCGTCCAACACATCG
Kd (Factor XIa (FXIa) [1]): 0.0018 µM

B2: FELIAP (Apt10-10) (ssDNA)
DNA: GAATTCTAATACGACTCACTATAAACCTATCGGACTATTGTTAGTGATTTTTATAGTGTGCGTCCAACACATCG
Ki (Factor XIa (FXIa) [2]): 29 µM
